Measurements as given in PMC3473065.
Positions count from the first letter of the chain named.

B1: wild-type Ncd dimeric motor protein (MGSM-H293-K700) (domain or fragment)
chain: MGSMHAALSTEVVHLRQRTEELLRCNEQQAAELETCKEQLFQSNMERKELHNTVMDLRGNIRVFCRIRPPLESEENRMCCTWTYHDESTVELQSIDAQAKSKMGQQIFSFDQVFHPLSSQSDIFEMVSPLIQSALDGYNICIFAYGQTGSGKTYTMDGVPESVGVIPRTVDLLFDSIRGYRNLGWEYEIKATFLEIYNEVLYDLLSNEQKDMEIRMAKNNKNDIYVSNITEETVLDPNHLRHLMHTAKMNRATASTAGNERSSRSHAVTKLELIGRHAEKQEISVGSINLVDLAGSESPKTSTRMTETKNINRSLSELTNVILALLQKQDHIPYRNSKLTHLLMPSLGGNSKTLMFINVSPFQDCFQESVKSLRFAASVNSCKMTKAKRNRYLNNSVANSSTQSNNSGSFDK
B2: NcdY485K dimeric motor protein (MGSM-H293-K700) (domain or fragment)
chain: B1 chain with Y197K
B3: NcdY485E dimeric motor protein (MGSM-H293-K700) (domain or fragment)
chain: B1 chain with Y197E
B4: NcdY485N dimeric motor protein (MGSM-H293-K700) (domain or fragment)
chain: B1 chain with Y197N

molecular target: microtubules; experiment: not given

Binder | K (M,MT) of steady-state ATPase, 0.5 µM motor + 0-25 µM microtubules [µM]
B1 | 17
B2 | 1.6

molecular target: microtubules; experiment: co-sedimentation; microtubule pelleting assay: 0.7 µM motor with 2 µM microtubules and 0.1 mM Mg·ADP in HEM100 (10 mM HEPES pH 7.2, 1 mM EGTA, 1 mM MgCl2, 100 mM NaCl); centrifugation, SDS-PAGE; corrected for motor that pelleted without microtubules

Binder | MT binding with ADP (fraction bound) (fraction bound)
B1 | 0.2
B3 | 0.29
B4 | 0.37
B2 | 0.6
